# Assay results reported in publication PMC10188367, “Improved cytosine base editors generated from TadA variants” (Nature Biotechnology, 2023).
# Experiments:
# [1] = target: the molecule itself; experiment: crystal structure; TadA*8.20 (0.15 mM) with 0.22 mM 13-nt ssDNA containing d8Az; PEG 3,350, ammonium acetate, Tris pH 8.5, 20 °C
# [2] = target: the molecule itself; experiment: crystal structure; TADAC-1.19 (0.3 mM) without ssDNA; PEG 3,350, ammonium citrate tribasic pH 7.0, 20 °C
# [3] = target: the molecule itself; experiment: crystal structure; TADAC-1.17 (0.15 mM) with 0.22 mM 13-nt ssDNA containing d8Az; PEG 3,350, Tacsimate pH 6, 20 °C
# [4] = target: the molecule itself; experiment: crystal structure; TADAC-1.14 (0.18 mM) without ssDNA; ammonium sulfate, HEPES pH 7.5, 20 °C
protein,measurement,setting,value
"TadA*8.20 (enzyme, E. coli, E. coli tRNA adenosine deaminase TadA, laboratory-evolved variant TadA*8.20 of ABE8.20-m; 167 residues; Crystallised with a 13-nt ssDNA containing 2-deoxy-8-azanebularine; zinc enzyme; also called deaminase of ABE8.20-m; ABE8.20 TadA*; source: E. coli BL21 Star (DE3), purified (Ni-NTA, Ulp1 cleavage, reverse Ni-NTA, heparin, SEC); not shown: His, N-terminal, cleaved; SUMO, N-terminal, cleaved) MSEVEFSHEYWMRHALTLAKRARDEREVPVGAVLVLNNRVIGEGWNRAIGLHDPTAHAEIMALRQGGLVMQNYRLYDATLYSTFEPCVMCAGAMIHSRIGRVVFGVRNAKTGAAGSLMDVLHHPGMNHRVEITEGILADECAALLCRFFRMPRRVFNAQKKAQSSTD",stoichiometry N,[1],2
"TADAC-1.19 (enzyme, E. coli, E. coli TadA variant: TadA*8.20 with E27G and I49N relative to TadA*8.20; 167 residues; the rows below are written against wild-type TadA; Crystallised without ssDNA; also called TADAC-T1.19; source: E. coli BL21, purified as described for TadA*8.20; not shown: His, N-terminal, cleaved; SUMO, N-terminal, cleaved) MSEVEFSHEYWMRHALTLAKRARDERGVPVGAVLVLNNRVIGEGWNRANGLHDPTAHAEIMALRQGGLVMQNYRLYDATLYSTFEPCVMCAGAMIHSRIGRVVFGVRNAKTGAAGSLMDVLHHPGMNHRVEITEGILADECAALLCRFFRMPRRVFNAQKKAQSSTD",stoichiometry N,[2],2
"TADAC-1.17 (enzyme, E. coli, E. coli TadA variant: TadA*8.20 with T17A, A48G, S82T and A142E relative to TadA*8.20; 167 residues; the rows below are written against wild-type TadA; Crystallised with a 13-nt ssDNA containing 2-deoxy-8-azanebularine; also called deaminase of CABE-T1.17; source: E. coli BL21, purified as described for TadA*8.20; not shown: His, N-terminal, cleaved; SUMO, N-terminal, cleaved) MSEVEFSHEYWMRHALALAKRARDEREVPVGAVLVLNNRVIGEGWNRGIGLHDPTAHAEIMALRQGGLVMQNYRLYDATLYTTFEPCVMCAGAMIHSRIGRVVFGVRNAKTGAAGSLMDVLHHPGMNHRVEITEGILADECEALLCRFFRMPRRVFNAQKKAQSSTD",stoichiometry N,[3],2
"TADAC-1.14 (enzyme, E. coli, E. coli TadA variant: TadA*8.20 with S2H, I49K, Y76I and G112H relative to TadA*8.20; Y76I brings position 76 back to the wild-type residue; 167 residues; the rows below are written against wild-type TadA; Crystallised without ssDNA; also called deaminase of CABE-T1.14; source: E. coli BL21 Star (DE3), purified (Ni-NTA, heparin, SEC; Ulp1 tag cleavage and reverse Ni-NTA omitted); not shown: …) MHEVEFSHEYWMRHALTLAKRARDEREVPVGAVLVLNNRVIGEGWNRAKGLHDPTAHAEIMALRQGGLVMQNYRLIDATLYSTFEPCVMCAGAMIHSRIGRVVFGVRNAKTHAAGSLMDVLHHPGMNHRVEITEGILADECAALLCRFFRMPRRVFNAQKKAQSSTD",stoichiometry N,[4],2
